For two substances, cAMP production, candidate selection (CS) CHO-GLP-1R cell line and Ki results are on record in article doi:10.1101/2020.09.29.319483.

Assay [1] addresses human glucagon-like peptide-1 receptor (human) (UniProt P43220).
Assay [2] shares this target. Nature of the assay: radioligand binding.

Chain of UniProt P43220 (P43220 24-463): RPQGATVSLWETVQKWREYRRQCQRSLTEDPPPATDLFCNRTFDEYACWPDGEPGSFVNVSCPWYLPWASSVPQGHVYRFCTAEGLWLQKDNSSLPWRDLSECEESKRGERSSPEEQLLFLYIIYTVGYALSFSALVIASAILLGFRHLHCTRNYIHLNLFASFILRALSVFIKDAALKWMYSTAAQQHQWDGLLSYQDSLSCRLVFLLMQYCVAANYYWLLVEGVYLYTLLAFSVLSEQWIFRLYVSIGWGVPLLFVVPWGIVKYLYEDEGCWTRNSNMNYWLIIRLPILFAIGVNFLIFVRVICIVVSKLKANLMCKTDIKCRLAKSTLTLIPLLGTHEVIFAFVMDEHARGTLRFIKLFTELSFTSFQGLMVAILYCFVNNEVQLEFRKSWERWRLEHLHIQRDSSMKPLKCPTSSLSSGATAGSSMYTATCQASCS

In assay [1], “exenatide (from UniProt P26349 48-87) (peptide)” yielded a cAMP production, candidate selection (CS) CHO-GLP-1R cell line of 0.11 nM. The Ki in assay [2] was 0.092 nM.

In the case of liraglutide (peptide), the Ki in assay [2] worked out at 4.4 nM.
